Where “and” joins values, the source holds several entries; their conditions need not be identical. Identical values can stand only once.
T1: MtrA (Mycobacterium tuberculosis H37Rv, UniProt P9WGM7 1-228)
T1 sequence: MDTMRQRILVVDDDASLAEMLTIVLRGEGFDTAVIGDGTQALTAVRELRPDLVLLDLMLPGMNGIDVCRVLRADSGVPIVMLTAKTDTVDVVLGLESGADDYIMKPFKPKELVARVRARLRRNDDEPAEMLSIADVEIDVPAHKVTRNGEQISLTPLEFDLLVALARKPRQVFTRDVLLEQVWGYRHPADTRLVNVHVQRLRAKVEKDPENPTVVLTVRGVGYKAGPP

T2: MtrA (Mycobacterium tuberculosis H37Rv) (UniProt P9WGM7)
T2 sequence: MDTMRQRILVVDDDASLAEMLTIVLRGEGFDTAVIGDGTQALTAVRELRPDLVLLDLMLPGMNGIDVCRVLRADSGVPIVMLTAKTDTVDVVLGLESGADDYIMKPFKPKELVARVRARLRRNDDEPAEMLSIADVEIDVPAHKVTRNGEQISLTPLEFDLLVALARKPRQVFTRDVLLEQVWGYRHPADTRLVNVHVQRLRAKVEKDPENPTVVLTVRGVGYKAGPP

B1: No-Binding fragment (dsDNA)
DNA 1: ACAGCGGGACGTTTTCGCGCTGCATC
DNA 2: GATGCAGCGCGAAAACGTCCCGCTGT
B2: Rv0309 fragment (dsDNA)
DNA 1: GCTTTGTCACCGCACAGTGACCCAGC
DNA 2: GCTGGGTCACTGTGCGGTGACAAAGC
B3: Rv3859c fragment (dsDNA)
DNA 1: GTTACGTGATCGAATTGTGGTCCAGG
DNA 2: CCTGGACCACAATTCGATCACGTAAC
B4: artificial highest-contribution sequence (dsDNA)
DNA 1: GTTTTGTTATCGTTTTGTGATATGGA
DNA 2: TCCATATCACAAAACGATAACAAAAC
B5: Rv2524c fragment (dsDNA)
DNA 1: GTTTTGTTATCAAATCGTTATGCTGG
DNA 2: CCAGCATAACGATTTGATAACAAAAC

biological target: T1, MtrA; experiment: BLI; conditions: protein: recombinant; tags: His6 (pET28a, BamHI/XhoI; N-terminal, inferred from stop codon in reverse primer); chain copies: 2; blunt

B1: no binding.

In order of falling Kd:
1. B2  178 µM
2. B4  0.248 µM

For B3, the Kd was 13.3 µM and 11.1 µM.
In the case of B5, the Kd is reported as 0.0462 µM and 0.0625 µM.

biological target: T2, MtrA (Mycobacterium tuberculosis H37Rv); experiment: BLI; conditions: not given

In order of falling Kd:
1. Rv3246c fragment  9880 µM
2. Rv3849 fragment  9650 µM
3. Rv0469 fragment  119 µM
4. Rv0320 fragment  0.142 µM
5. Rv1918c fragment  0.079 µM

From publication PMC10609481, “Substrate DNA Promoting Binding of Mycobacterium tuberculosis MtrA by Facilitating Dimerization and Interpretation of Affinity by Minor Groove Width”
